Here are results for one molecule from US20180273941A1 (UNIVERSITY OF MARYLAND BALTIMORE, published 2018).

The target of this test is T1, wild-type human moesin (Moesin-WT) (human, UniProt P26038 2-577, pulled down with the anti-p-ERM antibody, i.e. the form with phosphorylated C-terminal threonine (Thr558 for moesin, as the filing names the site in paragraph 193)).
T1 construct: also called pCDNA3-Moesin WT; wild type moesin
Briefly: anti-p-ERM IP and Western blot, transfected H522 cells. The text has this:
Both plasmids produce high levels of moesin proteins in the transfected cells (FIG. 5d).
Because p-ERM functions primarily through binding to F-actin and EBP50 (ERM-binding phosphoprotein 50) through their C-ERMAD and TERM domain (Fouassier, L., Yun, C. C., Fitz, J. G.& Doctor, R. B. Evidence for ezrin-radixin-moesin-binding phosphoprotein 50 (EBP50) self-association through PDZ-PDZ interactions. J Biol Chem. 275, 25039-25045 (2000); Turunen, O., Wahlström, T. & Vaheri, A. Ezrin has a COOH-terminal actin-binding site that is conserved in the ezrin protein family. J Cell Biol. 126, 1445-1453 (1994); Bretscher, A. et al. ERM-Merlin and EBP50 protein families in plasma membrane organization and function.
A general note: Immunoblotting shows a protein as a band on a membrane.

T1 sequence (P26038 2-577 limits assumed): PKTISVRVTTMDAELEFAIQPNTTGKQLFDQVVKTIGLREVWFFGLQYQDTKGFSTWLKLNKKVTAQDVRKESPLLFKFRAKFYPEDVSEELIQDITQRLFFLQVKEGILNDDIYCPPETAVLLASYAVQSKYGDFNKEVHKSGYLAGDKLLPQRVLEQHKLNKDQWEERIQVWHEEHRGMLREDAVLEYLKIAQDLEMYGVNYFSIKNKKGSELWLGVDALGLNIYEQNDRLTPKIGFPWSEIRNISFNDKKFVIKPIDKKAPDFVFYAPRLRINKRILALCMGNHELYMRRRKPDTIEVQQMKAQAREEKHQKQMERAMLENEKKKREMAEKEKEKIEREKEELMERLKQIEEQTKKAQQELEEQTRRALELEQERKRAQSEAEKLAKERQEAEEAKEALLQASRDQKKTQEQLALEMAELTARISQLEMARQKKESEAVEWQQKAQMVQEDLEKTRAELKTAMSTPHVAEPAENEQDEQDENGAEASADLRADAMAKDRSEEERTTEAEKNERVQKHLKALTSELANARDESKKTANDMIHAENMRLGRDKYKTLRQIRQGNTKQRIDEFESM

B1: ERM-binding phosphoprotein 50 (EBP50) (other, UniProt O14745 2-358, looked up)
chain: SADAAAGAPLPRLCCLEKGPNGYGFHLHGEKGKLGQYIRLVEPGSPAEKAGLLAGDRLVEVNGENVEKETHQQVVSRIRAALNAVRLLVVDPETDEQLQKLGVQVREELLRAQEAPGQAEPPAAAEVQGAGNENEPREADKSHPEQRELRPRLCTMKKGPSGYGFNLHSDKSKPGQFIRSVDPDSPAEASGLRAQDRIVEVNGVCMEGKQHGDVVSAIRAGGDETKLLVVDRETDEFFKKCRVIPSQEHLNGPLPVPFTNGEIQKENSREALAEAALESPRPALVRSASSDTSEELNSQDSPPKQDSTAPSSTSSSDPILDFNISLAMAKERAHQKRSSKRAPQMDWSKKNELFSNL
notes: Endogenous protein detected by Western blot (anti-EBP50, Clone 6/EBP50) in anti-p-ERM IP products
As for B1, the binding result is reported as “binds”.
